Article PMC6962393 (2020)

Columns and labels:
[1] = biological target: FN-67B89, human fibronectin EDB flanked by its surrounding type III domains (human); experiment: ELISA
[2] = biological target: FN-B, recombinant human fibronectin extra domain B (EDB) as a single domain (human); experiment: ELISA
FN-B, recombinant human fibronectin extra domain B (EDB) as a single domain (human), sequence (chain, as listed by the source): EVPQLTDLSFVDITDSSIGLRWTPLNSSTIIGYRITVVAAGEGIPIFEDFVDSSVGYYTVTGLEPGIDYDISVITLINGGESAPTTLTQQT

FN-67B89, human fibronectin EDB flanked by its surrounding type III domains (human), sequence (chain, as listed by the source): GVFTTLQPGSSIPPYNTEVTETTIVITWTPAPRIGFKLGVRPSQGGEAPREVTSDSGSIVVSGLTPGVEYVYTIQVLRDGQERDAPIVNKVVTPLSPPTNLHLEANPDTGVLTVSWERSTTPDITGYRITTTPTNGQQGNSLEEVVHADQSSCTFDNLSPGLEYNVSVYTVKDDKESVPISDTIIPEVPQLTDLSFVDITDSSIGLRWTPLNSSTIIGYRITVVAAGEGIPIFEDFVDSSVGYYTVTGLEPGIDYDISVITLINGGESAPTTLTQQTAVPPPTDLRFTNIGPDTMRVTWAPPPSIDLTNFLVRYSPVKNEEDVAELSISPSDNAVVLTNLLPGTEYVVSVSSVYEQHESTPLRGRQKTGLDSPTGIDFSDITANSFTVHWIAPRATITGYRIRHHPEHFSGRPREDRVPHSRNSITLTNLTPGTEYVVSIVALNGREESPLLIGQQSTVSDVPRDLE

With SVCKQANFVRIRLCRRDSDCPGACICRGNGYCG (designed binder) [Trx-MC-FN-060, Thioredoxin-A fusion of cystine-knot miniprotein MC-FN-060] the Kd [1] was 20.4 nM and the Kd [2] was 10.3 nM.

SVCKNVSIMRIRLCRRDSDCPGACICRGNGYCG (designed binder) [Trx-MC-FN-050, Thioredoxin-A fusion of cystine-knot miniprotein MC-FN-050] was tested, and the Kd [1] was 67.8 nM and the Kd [2] was 40.5 nM.

WKCQPTNGYRIRCRRDSDCPGDCICRGNGYCG (designed binder) [Trx-MC-FN-030, Thioredoxin-A fusion of cystine-knot miniprotein MC-FN-030] gave a Kd [1] of 232 nM and a Kd [2] of 234 nM.

Work on PMCTQRKNRIRLCRRDSDCTGACICRGNGYCG (designed binder) [Trx-MC-FN-010, Thioredoxin-A fusion of cystine-knot miniprotein MC-FN-010] yielded a Kd [1] of 10.5 nM and a Kd [2] of 6.07 nM.

In the case of SVCAHYNTIRVRLCRRDSDCPGACICRGNGYCG (designed binder) [Trx-MC-FN-040, Thioredoxin-A fusion of cystine-knot miniprotein MC-FN-040], the Kd [1] is reported as 29.4 nM and the Kd [2] is reported as 24 nM.
